Patent KR20150077749A (dated 2015)

T1: WRS (Tryptophanyl-tRNA synthetase), purified recombinant antigen (UniProt P23381 1-471, limits assumed)
T1 construct: also called 트립토파닐-tRNA 합성효소
T1 sequence (looked up): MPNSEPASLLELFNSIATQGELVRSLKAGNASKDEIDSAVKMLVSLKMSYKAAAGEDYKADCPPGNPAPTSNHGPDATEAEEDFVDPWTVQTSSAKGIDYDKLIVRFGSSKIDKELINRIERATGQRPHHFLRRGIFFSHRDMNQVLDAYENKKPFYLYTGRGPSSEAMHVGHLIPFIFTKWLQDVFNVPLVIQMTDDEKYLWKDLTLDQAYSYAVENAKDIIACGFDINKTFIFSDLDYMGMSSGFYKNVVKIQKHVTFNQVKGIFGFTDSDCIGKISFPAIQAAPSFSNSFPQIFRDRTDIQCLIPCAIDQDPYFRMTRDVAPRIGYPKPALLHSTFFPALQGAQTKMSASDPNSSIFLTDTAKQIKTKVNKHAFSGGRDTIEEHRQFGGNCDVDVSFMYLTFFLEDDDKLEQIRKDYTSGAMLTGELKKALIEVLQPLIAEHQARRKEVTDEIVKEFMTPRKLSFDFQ

T2: YRS (Tyrosyl-tRNA synthetase), purified recombinant antigen (UniProt P54577 1-528, limits assumed)
T2 construct: also called 타이로실-tRNA 합성효소
T2 sequence (looked up): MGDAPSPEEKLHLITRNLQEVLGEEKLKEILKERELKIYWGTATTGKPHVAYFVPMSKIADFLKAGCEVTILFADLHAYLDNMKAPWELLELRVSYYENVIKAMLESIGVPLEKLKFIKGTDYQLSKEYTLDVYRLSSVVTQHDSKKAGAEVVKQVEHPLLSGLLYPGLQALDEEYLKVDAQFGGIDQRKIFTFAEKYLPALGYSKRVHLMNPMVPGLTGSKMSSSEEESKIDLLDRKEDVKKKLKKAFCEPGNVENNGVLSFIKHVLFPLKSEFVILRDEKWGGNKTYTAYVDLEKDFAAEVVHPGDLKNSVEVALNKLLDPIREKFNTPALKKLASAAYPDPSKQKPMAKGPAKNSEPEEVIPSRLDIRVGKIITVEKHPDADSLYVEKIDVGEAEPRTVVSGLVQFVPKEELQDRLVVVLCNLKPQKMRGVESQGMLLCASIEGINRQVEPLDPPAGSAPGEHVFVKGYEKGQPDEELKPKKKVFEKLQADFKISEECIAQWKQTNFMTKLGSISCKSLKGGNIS

T3: AIMP1 (Aminoacyl-tRNA-synthetase-interacting multifunctional protein 1), purified recombinant antigen (UniProt Q12904 1-312, limits assumed)
T3 construct: also called AIMP1(p43); p43
T3 sequence (looked up): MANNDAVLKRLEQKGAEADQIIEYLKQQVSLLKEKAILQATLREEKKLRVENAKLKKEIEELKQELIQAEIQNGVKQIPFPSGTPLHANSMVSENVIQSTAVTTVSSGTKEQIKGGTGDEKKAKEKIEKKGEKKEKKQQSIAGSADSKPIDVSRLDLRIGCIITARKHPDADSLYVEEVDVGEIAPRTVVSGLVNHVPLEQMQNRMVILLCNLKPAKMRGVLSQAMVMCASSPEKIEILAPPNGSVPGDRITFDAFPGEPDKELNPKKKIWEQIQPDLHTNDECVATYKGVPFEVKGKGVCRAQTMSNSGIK

T4: HRS (Histidyl-tRNA synthetase), purified recombinant antigen (UniProt P12081 1-509, limits assumed)
T4 construct: also called 히스티딜-tRNA 합성효소
T4 sequence (looked up): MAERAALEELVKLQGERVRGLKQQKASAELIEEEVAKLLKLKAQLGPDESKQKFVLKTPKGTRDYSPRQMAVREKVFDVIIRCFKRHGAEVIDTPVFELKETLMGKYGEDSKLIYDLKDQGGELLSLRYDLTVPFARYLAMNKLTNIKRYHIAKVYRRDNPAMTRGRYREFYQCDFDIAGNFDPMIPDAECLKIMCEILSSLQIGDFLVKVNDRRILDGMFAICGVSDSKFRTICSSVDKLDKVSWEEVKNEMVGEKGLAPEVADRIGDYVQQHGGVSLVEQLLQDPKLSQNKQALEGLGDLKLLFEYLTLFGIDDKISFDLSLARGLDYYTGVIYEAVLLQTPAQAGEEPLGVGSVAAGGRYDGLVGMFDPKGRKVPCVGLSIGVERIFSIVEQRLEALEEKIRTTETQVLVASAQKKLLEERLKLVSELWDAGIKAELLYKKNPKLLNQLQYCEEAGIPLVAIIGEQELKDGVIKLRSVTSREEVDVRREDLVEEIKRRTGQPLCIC

T5: NRS (Asparaginyl-tRNA synthetase), purified recombinant antigen (UniProt O43776 1-548, limits assumed)
T5 construct: also called 아스파라기닐딜-tRNA 합성효소
T5 sequence (looked up): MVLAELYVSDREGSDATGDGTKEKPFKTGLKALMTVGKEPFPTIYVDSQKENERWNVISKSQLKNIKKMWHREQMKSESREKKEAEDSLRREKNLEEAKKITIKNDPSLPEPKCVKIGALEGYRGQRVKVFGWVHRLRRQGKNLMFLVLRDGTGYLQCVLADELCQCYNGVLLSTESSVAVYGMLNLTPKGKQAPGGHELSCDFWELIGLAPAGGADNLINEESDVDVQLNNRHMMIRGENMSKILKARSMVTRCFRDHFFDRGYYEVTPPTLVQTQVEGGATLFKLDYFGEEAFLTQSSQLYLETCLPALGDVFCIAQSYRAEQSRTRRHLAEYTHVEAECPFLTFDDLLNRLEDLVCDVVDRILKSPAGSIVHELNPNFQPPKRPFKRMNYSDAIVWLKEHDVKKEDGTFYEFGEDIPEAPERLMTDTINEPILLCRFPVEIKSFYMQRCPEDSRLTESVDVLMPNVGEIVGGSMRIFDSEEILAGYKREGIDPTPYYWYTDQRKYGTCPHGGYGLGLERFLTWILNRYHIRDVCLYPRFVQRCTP

T6: GRS expressed natively in human cells (HeLa cell lysate) (human, UniProt P41250 55-739, limits assumed)
T6 construct: Target of the western blot; also called human 세포에서 원래 발현된 GRS
T6 sequence (looked up): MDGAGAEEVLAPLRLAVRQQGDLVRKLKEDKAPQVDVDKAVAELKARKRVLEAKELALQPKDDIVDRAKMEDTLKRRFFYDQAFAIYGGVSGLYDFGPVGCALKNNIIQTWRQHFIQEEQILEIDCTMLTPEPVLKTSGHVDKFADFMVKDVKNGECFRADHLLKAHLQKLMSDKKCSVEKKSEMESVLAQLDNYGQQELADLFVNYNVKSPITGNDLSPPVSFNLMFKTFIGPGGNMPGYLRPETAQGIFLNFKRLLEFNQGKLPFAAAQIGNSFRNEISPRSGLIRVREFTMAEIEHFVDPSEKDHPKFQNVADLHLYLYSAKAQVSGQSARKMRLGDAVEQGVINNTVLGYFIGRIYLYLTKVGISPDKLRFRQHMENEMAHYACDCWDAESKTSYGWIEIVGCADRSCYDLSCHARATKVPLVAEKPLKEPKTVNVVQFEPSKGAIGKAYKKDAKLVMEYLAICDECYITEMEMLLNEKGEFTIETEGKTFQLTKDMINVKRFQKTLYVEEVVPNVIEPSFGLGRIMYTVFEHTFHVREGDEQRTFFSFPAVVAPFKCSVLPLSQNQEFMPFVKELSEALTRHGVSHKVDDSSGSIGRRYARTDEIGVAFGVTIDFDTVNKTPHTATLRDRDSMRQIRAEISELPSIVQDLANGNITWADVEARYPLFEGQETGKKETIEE

B1: anti-GRS scFv, SEQ ID NO 13 (antibody i) (scFv)
scFv: EVQLLESGGGLVQPGGSLRLSCAASGFTFSDYDMSWVRQAPGKGLEWVSAISPDDGSKYYADSVKGRFTISRDNSKNTLYLQMNSLRAEDTAVYYCARTTWLFDYWGQGTLVTVSSGGGGSGGGGSGGGGSQSVLTQPPSASGTPGQRVTISCTGSSSNIGNNYVNWYQQLPGTAPKLLIYADSHRPSGVPDRFSGSKSGTSASLAISGLRSEDEADYYCGAWDSSLSGYVFGGGTKLTVL
notes: One of the three scFvs selected by phage display (human VH3-23/VL1g framework), expressed from pComb3X in the E. coli periplasm; It was purified on Ni-NTA and detected with anti-HA, so it carries His and HA tags; Every result written here is told alike for all three scFvs; also called 본 발명의 항체; 항 GRS scFv 항체
B2: anti-GRS scFv, SEQ ID NO 27 (antibody ii) (scFv)
scFv: EVQLLESGGGLVQPGGSLRLSCAASGFTFSGYDMSWVRQAPGKGLEWVSAIYSDSGSTYYADSVKGRFTISRDNSKNTLYLQMNSLRAEDTAVYYCARNTALFDYWGQGTLVTVSSGGGGSGGGGSGGGGSQSVLTQPPSASGTPGQRVTISCSGSSSNIGSNYVTWYQQLPGTAPKLLIYANNHRPSGVPDRFSGSKSGTSASLAISGLRSEDEADYYCGAWDASLSGYVFGGGTKLTVL
notes: One of the three scFvs selected by phage display, expressed from pComb3X in the E. coli periplasm; His and HA tags were used for purification and detection; also called 본 발명의 항체; 항 GRS scFv 항체
B3: anti-GRS scFv, SEQ ID NO 41 (antibody iii) (scFv)
scFv: EVQLLESGGGLVQPGGSLRLSCAASGFTFSNYDMSWVRQAPGKGLEWVSWIYSNGSSTYYADSVKGRFTISRDNSKNTLYLQMNSLRAEDTAVYYCARITCMFDYWGQGTLVTVSSGGGGSGGGGSGGGGSQSVLTQPPSASGTPGQRVTISCSGSSSNIGSNYVTWYQQLPGTAPKLLIYADSHRPSGVPDRFSGSKSGTSASLAISGLRSEDEADYYCGSWDYSLNGYVFGGGTKLTVL
notes: as for B2

How the values were obtained:
[1] = target: T1, WRS (Tryptophanyl-tRNA synthetase), …; assay: Luminex multiplex bead assay, antigen coupled to beads, anti-HA-biotin / SA-PE detection
[2] = target: T2, YRS (Tyrosyl-tRNA synthetase), purified …; assay: as above
[3] = target: T3, AIMP1 …; assay: as above
[4] = target: T4, HRS (Histidyl-tRNA synthetase), …; assay: as above
[5] = target: T5, NRS (Asparaginyl-tRNA synthetase), …; assay: as above
[6] = target: T7, KRS (Lysyl-tRNA synthetase), purified recombinant antigen (UniProt Q15046 1-597, limits assumed); assay: as above
T7 construct: also called 리실-tRNA 합성효소

[7] = target: T8, SRS (Seryl-tRNA synthetase), purified recombinant antigen (UniProt P49591 1-514, limits assumed); assay: as above
T8 construct: also called 세릴-tRNA 합성효소

[8] = target: T6, GRS expressed natively in human cells …; assay: western blot

T8 sequence (P49591 whole entry): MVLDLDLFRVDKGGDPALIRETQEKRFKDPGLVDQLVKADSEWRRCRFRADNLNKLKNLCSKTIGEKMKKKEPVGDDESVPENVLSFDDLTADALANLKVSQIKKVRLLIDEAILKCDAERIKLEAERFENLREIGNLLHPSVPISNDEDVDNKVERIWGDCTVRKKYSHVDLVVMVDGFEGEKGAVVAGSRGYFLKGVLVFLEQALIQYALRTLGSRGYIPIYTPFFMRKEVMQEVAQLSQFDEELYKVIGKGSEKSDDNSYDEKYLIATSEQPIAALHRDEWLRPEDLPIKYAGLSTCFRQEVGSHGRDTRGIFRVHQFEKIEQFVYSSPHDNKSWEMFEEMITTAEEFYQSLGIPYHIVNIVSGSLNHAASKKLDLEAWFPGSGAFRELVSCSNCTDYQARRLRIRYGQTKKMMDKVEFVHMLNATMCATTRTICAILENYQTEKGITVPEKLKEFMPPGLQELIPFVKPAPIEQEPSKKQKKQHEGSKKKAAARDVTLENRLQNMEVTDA
T7 sequence (Q15046 whole entry): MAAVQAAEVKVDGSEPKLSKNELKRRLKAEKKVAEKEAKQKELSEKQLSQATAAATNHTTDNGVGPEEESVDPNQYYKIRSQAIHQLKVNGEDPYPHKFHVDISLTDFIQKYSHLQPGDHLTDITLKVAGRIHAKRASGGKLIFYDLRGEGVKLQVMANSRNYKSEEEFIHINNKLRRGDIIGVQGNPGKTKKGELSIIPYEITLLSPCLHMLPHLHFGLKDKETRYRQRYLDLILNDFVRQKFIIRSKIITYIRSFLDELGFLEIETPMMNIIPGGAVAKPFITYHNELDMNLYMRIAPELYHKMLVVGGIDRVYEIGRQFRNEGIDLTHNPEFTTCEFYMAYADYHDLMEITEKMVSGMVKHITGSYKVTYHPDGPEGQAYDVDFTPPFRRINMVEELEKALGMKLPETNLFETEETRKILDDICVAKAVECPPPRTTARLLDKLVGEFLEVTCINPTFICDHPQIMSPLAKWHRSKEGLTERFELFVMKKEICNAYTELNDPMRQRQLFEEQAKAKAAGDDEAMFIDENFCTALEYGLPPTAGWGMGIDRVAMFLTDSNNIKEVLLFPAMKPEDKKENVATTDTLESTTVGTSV

Binder	binding result [1]	binding result [2]	binding result [3]	binding result [4]	binding result [5]	binding result [6]	binding result [7]	binding result [8]
B1	no binding	no binding	no binding	no binding	no binding	no binding	no binding	–
B2	no binding	no binding	no binding	no binding	no binding	no binding	no binding	binds
B3	no binding	no binding	no binding	no binding	no binding	no binding	no binding	binds
